Molecular target: human His6-TfR1, P02786
Experiment: SPR
Details: chain shown with the change

Chain of human His6-TfR1, P02786 (P02786 89-760): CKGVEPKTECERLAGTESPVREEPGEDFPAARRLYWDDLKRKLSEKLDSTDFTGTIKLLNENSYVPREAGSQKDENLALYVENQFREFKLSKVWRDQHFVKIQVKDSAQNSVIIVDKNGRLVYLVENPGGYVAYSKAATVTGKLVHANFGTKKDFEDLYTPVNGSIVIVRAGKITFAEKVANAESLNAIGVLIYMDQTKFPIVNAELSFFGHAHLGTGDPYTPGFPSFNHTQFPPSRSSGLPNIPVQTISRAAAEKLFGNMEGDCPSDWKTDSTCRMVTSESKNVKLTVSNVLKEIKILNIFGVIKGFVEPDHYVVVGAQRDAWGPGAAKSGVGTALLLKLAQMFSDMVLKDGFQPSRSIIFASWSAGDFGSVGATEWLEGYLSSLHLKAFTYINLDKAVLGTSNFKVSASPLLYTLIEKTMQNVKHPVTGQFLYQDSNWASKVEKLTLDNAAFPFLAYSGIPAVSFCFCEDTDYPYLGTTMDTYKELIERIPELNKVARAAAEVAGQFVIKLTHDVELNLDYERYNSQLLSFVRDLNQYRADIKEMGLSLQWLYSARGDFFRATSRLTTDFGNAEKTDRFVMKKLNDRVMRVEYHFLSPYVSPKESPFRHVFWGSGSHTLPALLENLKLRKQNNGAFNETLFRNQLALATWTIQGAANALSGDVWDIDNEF

- Kd: 46 nM
Binder: CSPDAHLGCISYC [BCY15468 Ni:A del; Ti:A del; Nii:Ac (N-terminal acetyl cap)]

— PMC11983102, “Conjugation to a transferrin receptor 1-binding Bicycle peptide enhances ASO and siRNA potency in skeletal and cardiac muscles” (Nucleic Acids Research, 2025)
